Experimental data as given in patent US20080009025A1, “PROTEIN KINASE REGULATION” (priority 1999, published 2008).
Changes are numbered by the printed parent chain. In names and notes the source's numbering stands.

T1: GST-PDK1 (Homo sapiens, UniProt O15530)
T1 construct: Full length PDK1 (residues 1-556); made in house; host or cells: 293 cells
T1 sequence (O15530 1-556): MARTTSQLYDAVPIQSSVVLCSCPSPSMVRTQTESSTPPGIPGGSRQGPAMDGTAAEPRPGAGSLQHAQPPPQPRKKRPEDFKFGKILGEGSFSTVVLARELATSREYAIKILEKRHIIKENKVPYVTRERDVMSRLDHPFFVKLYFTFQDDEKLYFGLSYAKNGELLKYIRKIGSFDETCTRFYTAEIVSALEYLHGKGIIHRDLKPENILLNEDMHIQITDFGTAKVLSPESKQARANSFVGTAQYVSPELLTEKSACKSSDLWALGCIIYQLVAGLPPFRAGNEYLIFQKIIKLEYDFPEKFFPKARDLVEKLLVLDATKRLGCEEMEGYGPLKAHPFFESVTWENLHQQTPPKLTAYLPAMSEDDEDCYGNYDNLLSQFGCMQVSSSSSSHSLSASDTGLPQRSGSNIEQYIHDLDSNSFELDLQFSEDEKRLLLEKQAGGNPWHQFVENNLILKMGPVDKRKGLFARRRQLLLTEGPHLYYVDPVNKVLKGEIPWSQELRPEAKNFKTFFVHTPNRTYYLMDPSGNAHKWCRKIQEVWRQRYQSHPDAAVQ

B1: K115A: PDK1 mutant, Lys115 to Ala in the PIF-binding pocket (protein)
chain: T1 sequence (O15530 1-556) with K115A
modifications: left off: small tags and cut ends
B2: I119A: PDK1 mutant, Ile119 to Ala (protein)
chain: T1 sequence (O15530 1-556) with I119A
modifications: left off: small tags and cut ends
notes: PDK1 mutant, Ile119 to Ala
B3: Q150A: PDK1 mutant, Gln150 to Ala (protein)
chain: T1 sequence (O15530 1-556) with Q150A
modifications: left off: small tags and cut ends
notes: PDK1 mutant, Gln150 to Ala
B4: L155A: PDK1 mutant, Leu155 to Ala (protein)
chain: T1 sequence (O15530 1-556) with L155A
modifications: left off: a dimerising Fc or GST; small tags and cut ends
notes: PDK1 mutant, Leu155 to Ala
B5: L155D: PDK1 mutant, Leu155 to Asp (protein)
chain: T1 sequence (O15530 1-556) with L155D
modifications: left off: small tags and cut ends
notes: PDK1 mutant, Leu155 to Asp

Each molecule was assayed on S6K1[412E] (assay: Activation of S6K1[412E] by PDK1 PIF pocket mutants). Details: not given.
Type: biochemical, human
Method: (§1) FIG. 20. Effect of PIFtide on the activation of S6K1 and SGK1 by PDK1 PIF pocket mutants (155A, 115A, 119A, 150A). GST-PDK1, GST-PDK1 L155E, 155A, 115A, 119A and 150A were tested for their ability to activate His-S6K1 412E and GST-SGK1 422D. The phosphorylation and activation of substrates was performed as described in FIG. 17. When PIFtide was included in the reaction, it was pre-incubated on ice for ˜15 min until the reaction was initiated with the addition of ATP-Mg.
(§2) Activation of AGC kinase PDK1 substrates. Phosphorylation reactions were carried out as above except that non-radioactive ATP replaced [γ-^32P]ATP. Following 10 min at 30° C., cocktail (30 μl) containing 50 mM Tris-HCl pH 7.5, 0.1% (by vol) 2-mercaptoethanol, 10 mM magnesium chloride, […], 0.5 μM microcystin-LR and 100 μM peptide substrate crosstide (GRPRTSSFAEG) and [γ-^32P]ATP (˜600 c.p.m./pmol). Reactions were stopped by the addition of 25 μl of 0.2 M EDTA pH 8.0, spotted onto P81 phosphocellulose paper, washed and analysed as described for the assay of MAP kinase. The amount of PDK1 was in the assay was varied so that the assay was in the linear range. One unit of activity is deficed as phosphorylation 1 nmol of substrate in 1 min.

Molecule | rate of activation of S6K1[412E] compared with wild type PDK1
B1 | only marginally lower
B2 | only marginally lower
B3 | only marginally lower
B4 | only marginally lower

What follows are molecules tested against T1, GST-PDK1 (assay: Thermal denaturation of PDK1 (TM50)). Details: heated 2 min; no PIFtide.
Type: biochemical
Source text: A further aspect of the invention provides the use of an interacting polypeptide as defined above, for example comprising the amino acid sequence Phe/Tyr-Xaa-Xaa-Phe/Tyr or an interacting compound of the invention in a method of stabilising a protein kinase having a hydrophobic pocket in the position equivalent to the hydrophobic pocket of Protein Kinase A (PKA) that is defined by residues including Lys76, Leu116, Val80 and/or Lys111 of full-length mouse PKA, wherein the protein kinase is exposed to the compound or polypeptide. Stabilisation may be measured by measuring the TM50 value. The TM50 value is the temperature at which heating for two minutes produces a 50% reduction in protein kinase activity (measured using any appropriate substrate) compared with the protein kinase activity before such heating, as described in Example 2. An increase in the TM50 value, for example by at least about 1, 2, 3, 4, 5, 6, 7, 8, 9, 10 or 15° C. indicates stabilisation.
FIG. 12. PDK1 is activated and stabilised through its interaction with PIFtide. (A) GST-PDK1 activity was measured in the presence of increasing concentrations of wild type (wt) PIFtide (closed circles) or a mutant D978A PIFtide (open circles) using the synthetic peptide substrate termed T308tide, as described in Material and Methods. The data was fitted to a hyperbola using the Kaleidagraph™ software. […]

Molecule | TM50 value
B5 | 42 °C

Each molecule was assayed on SGK1[T422D] (assay: Activation of SGK1[T422D] by PDK1 PIF pocket mutants). Details: not given.
Type: biochemical
Method: as §1, §2

Molecule | rate of activation of SGK1[T422D] compared with wild type PDK1
B1 | markedly reduced
B2 | markedly reduced
B3 | markedly reduced
B4 | markedly reduced
